Experimental findings from US20220389077A1, “ALLOGENEIC CELL COMPOSITIONS AND METHODS OF USE” (Poseida Therapeutics, Inc., priority 2018, published 2022) are described below.

Experiment [1] concerns Allo CAR-T cells. The experiment can be described thus: Expansion of Allo CAR-T cells with WT or mutant (D111H) CSR CD2z. The format is cell-based, human. The conditions noted are these: up to 15-day culture; CSR stable or transient. The text has this:
FIG. 24A is a bar graph showing that the delivery of CSR CD2z-D111H mutant enhances the expansion of Allo CAR-T cells. Pan T cells isolated from healthy donor blood were genetically modified using the piggyBac® DNA modification system in combination with the Cas-CLOVER™ gene-editing system (CC) for the production of allogeneic (Allo) CAR-T cells, or without CC gene-editing, as a control, for the production of autologous (Auto) CAR-T without a CSR (No CSR); auto CAR-T cells were produced by nucleofection of an mRNA encoding the super piggyBac™ transposase enzyme (SPB) and a transposon encoding a CAR, selection gene and a safety switch. […] Following EP, all cells were subsequently stimulated with a cocktail of agonist mAbs anti-CD2, anti-CD3 and anti-CD28, and were later selected for genetic modification over the course of up to a 15-day culture period using the selection gene. At the end of the initial culture period, all T cells expressed the CAR, indicating successful selection for genetically-modified cells (data not shown), and then all non-edited TCR-positive cells were depleted via negative selection to yield a population of Allo CAR-T cells that were >99% TCR-negative (data not shown).

The test system of experiment [2] is TCRb and b2M. The experiment can be described thus: Gene editing (knockout of TCR and MHCI) of Allo CAR-T cells with CSR. Type of experiment: cell-based, human. The conditions noted are these: up to 14-day culture; CSR stable or transient. The source says:
Pan T cells isolated from healthy donor blood were genetically modified using the piggyBac® DNA modification system in combination with the Cas-CLOVER™ gene-editing system (CC) to produce allogeneic (Allo) CAR-T cells. […] Following EP, all cells were subsequently stimulated with a cocktail of agonist mAbs anti-CD2, anti-CD3 and anti-CD28, and were later selected for genetic modification over the course of up to a 14-day culture period using the selection gene. At the end of the initial culture period, all T cells expressed the CAR, indicating successful selection for genetically-modified cells (data not shown). All samples were performed in duplicate, and data is shown in bar graph where error bars represent standard deviation.

Experiment [3] has as its system anti-CD2 activator reagent, anti-CD2 monoclonal antibody (clone TS1/8), anti-CD2 polyclonal antibody reagent. The experiment can be described thus: CSR CD2z mutant surface expression and staining with anti-CD2 antibody reagents in K562 cells. The format is binding. To be noted: 9 μg mRNA, next day. On the procedure: FIG. 23A is a bar graph showing CSR CD2z mutant staining data. A panel of CSR CD2z mutants was designed, constructed, and tested for surface expression and binding to several anti-CD2 antibody reagents. To do so, each mutant was synthesized, subcloned into an in-house mRNA production vector, and then high-quality mRNA was produced for each. K562 cells were electroporated with 9 μg of mRNA, and surface-expression of each molecule was analyzed by flow cytometry the next day and data are shown as bar graphs. Each molecule was stained with anti-CD2 activator reagent, anti-CD2 monoclonal antibody (clone TS1/8), or anti-CD2 polyclonal antibody reagent (goat anti-human CD2).
(§1) FIG. 23C is a summary of staining and degranulation data. Data from surface-expression and binding studies, as well as those from degranulation experiments for each CSR CD2z mutant is summarized in the table.

The target of experiment [4] is T1, human CD58 (Homo sapiens, UniProt P19256).
T1 construct: expressed in transfected cells; host or cells: K562 (electroporated) or Rat2 (lipofected) cells
T1 sequence (P19256 29-250): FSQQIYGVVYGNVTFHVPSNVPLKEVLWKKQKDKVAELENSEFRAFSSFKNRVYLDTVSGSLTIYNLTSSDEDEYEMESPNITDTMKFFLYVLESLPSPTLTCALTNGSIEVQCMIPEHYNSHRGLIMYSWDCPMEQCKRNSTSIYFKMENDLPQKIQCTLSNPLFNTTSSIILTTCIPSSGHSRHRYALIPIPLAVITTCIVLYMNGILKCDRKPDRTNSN
In words: T cell degranulation (CD107a) against CD58-positive cell targets. Type of experiment: cell-based. To be noted: 4-6 hours coculture, K562 or Rat2 cells with mRNA encoding human CD58. On the procedure: FIG. 23B is a series of bar graphs showing CSR CD2z mutant degranulation data. The panel of CSR CD2z mutants was tested for the capability of mediating degranulation against CD58-positive cell targets. T cell degranulation is a surrogate of T cell killing that can be measured by FACS staining for intracellular CD107a expression following coculture with target cell lines expressing target antigen. Specifically, pan T cells from normal blood donors were stimulated with anti-CD3/anti-CD28 beads in standard T cell culture media, then rested. These cells were then electroporated (BTX ECM 830 electroporator @ 500V for 700 μs) with 9 μg of mRNA expressing CSR CD2z mutants and cultured overnight. The next day, the cells were cocultured for 4-6 hours in the presence of various target cell lines. Positive target cell lines included K562 cells or Rat2 cells that were electroporated or lipofected, respectively, with mRNA encoding human CD58, while negative controls were either Rat2 cells that were not electroporated or CSR CD2z mutant expressing T cells alone.
as §1
FIG. 23D is a series of flow cytometry plots showing the expression of CD48, CD58 or CD59 on K562 and Rat2 cells. To confirm possible ligands for the CSR WT CD2z molecule, a panel of known and suspected ligands including human CD48, CD58, and CD59 were tested. Degranulation of engineered T cells was evaluated against the cell lines K562 and Rat2 that were made to overexpress the target ligands and confirmed for expression by FACS staining. Red histograms are unstained cells and blue histograms are cells that were electroporated/lipofected with mRNA and then stained for expression of the respective marker by FACS.
FIG. 23E is a bar graph showing that CSR CD2z recognizes human CD58, but not CD48 or CD59. To confirm possible ligands for the CSR WT CD2z molecule, a panel of known and suspected ligands including human CD48, CD58, and CD59 were tested. Degranulation of engineered T cells was evaluated against the cell lines K562 and Rat2 that were made to overexpress the target ligands and confirmed for expression by FACS staining. Cells were electroporated/lipofected with mRNA and then stained for expression of the respective marker by FACS. As a control, a BCMA CAR was included as well as a K562 cell line overexpressing BCMA. In addition, T cells transfected with GFP were also included as a control. T cell degranulation is a surrogate of T cell killing that can be measured by FACS staining for intracellular CD107a expression following coculture with target cell lines expressing target antigen. Pan T cells from normal blood donors were stimulated with anti-CD3/anti-CD28 beads in standard T cell culture media, then rested. These T cells were then electroporated with mRNA expressing CSR WT CD2z, BCMA CAR, or GFP and cultured overnight. The next day, the cells were cocultured for 4-6 hours in the presence of the various target cell lines that were electroporate/lipofected with mRNA encoding human CD48, CD58 or CD59, while negative controls were either K562 or Rat2 cells that were not electroporated/lipofected, or each of the electroporated T cells alone.

Changes are numbered by the printed parent chain. In names and notes the source's numbering stands. Entries after “also recorded” stand apart in the source; their conditions may differ.

B1: D111H: mutant CSR CD2z with D111H mutation within the CD2 extracellular domain (SEQ ID NO: 17118) (protein)
chain: MSFPCKFVASFLLIFNVSSKGAVSKEITNALETWGALGQDINLDIPSFQMSDDIDDIKWEKTSDKKKIAQFRKEKETFKEKDTYKLFKNGTLKIKHLKTDDQDIYKVSIYHTKGKNVLEKIFDLKIQERVSKPKISWTCINTTLTCEVMNGTDPELNLYQDGKHLKLSQRVITHKWTTSLSAKFKCTAGNKVSKESSVEPVSCPEKGLDIYLIIGICGGGSLLMVFVALLVFYITKRKKQRSRRNDEELETRAHRVATEERGRKPHQIPASTPQNPATSQHPPPPPGHRSQAPSHRPPPPGHRVQHQPQKRPPAPSGTQVHQQKGPPLPRPRVQPKPPHGAAENSLSPSSNRVKFSRSADAPAYKQGQNQLYNELNLGRREEYDVLDKRRGRDPEMGGKPRRKNPQEGLYNELQKDKMAEAYSEIGMKGERRRGKGHDGLYQGLSTATKDTYDALHMQALPPR
As for B1, the “peak expansion of Allo CAR-T cells compared to Allo CAR-T cells produced without a CSR” value in experiment [1] is “a greater degree of expansion”. The “degree of gene editing compared to Allo CAR-T cells produced without a CSR” value in experiment [2] is “a similar or greater degree of gene editing”. Besides, the “surface expression and binding of anti-CD2 staining reagents” value in experiment [3] is “strongly bound by all staining reagents”. For the same molecule, the “degranulation (CD107a) against CD58” value in experiment [4] is “Little reactivity; also recorded: completely abrogating anti-CD58 degranulation activity”.

B2: Delta K106-120: CSR CD2z mutant of the panel (protein)
chain: KEITNALETWGALGQDINLDIPSFQMSDDIDDIKWEKTSDKKKIAQFRKEKETFKEKDTYKLFKNGTLKIKHLKTDDQDIYIFDLKIQERVSKPKISWTCINTTLTCEVMNGTDPELNLYQDGKHLKLSQRVITHKWTTSLSAKFKCTAGNKVSKESSVEPVSCPEKGLDIYLIIGICGGGSLLMVFVALLVFYITKRKKQRSRRNDEELETRAHRVATEERGRKPHQIPASTPQNPATSQHPPPPPGHRSQAPSHRPPPPGHRVQHQPQKRPPAPSGTQVHQQKGPPLPRPRVQPKPPHGAAENSLSPSSNRVKFSRSADAPAYKQGQNQLYNELNLGRREEYDVLDKRRGRDPEMGGKPRRKNPQEGLYNELQKDKMAEAYSEIGMKGERRRGKGHDGLYQGLSTATKDTYDALHMQALPPR
On to B2, for which the “degranulation (CD107a) against CD58” value in experiment [4] is “Little reactivity”.

B3: K67R/Y110D: CSR CD2z mutant within the extracellular domain of CD2 (protein)
chain: KEITNALETWGALGQDINLDIPSFQMSDDIDDIKWEKTSDKKRIAQFRKEKETFKEKDTYKLFKNGTLKIKHLKTDDQDIYKVSIDDTKGKNVLEKIFDLKIQERVSKPKISWTCINTTLTCEVMNGTDPELNLYQDGKHLKLSQRVITHKWTTSLSAKFKCTAGNKVSKESSVEPVSCPEKGLDIYLIIGICGGGSLLMVFVALLVFYITKRKKQRSRRNDEELETRAHRVATEERGRKPHQIPASTPQNPATSQHPPPPPGHRSQAPSHRPPPPGHRVQHQPQKRPPAPSGTQVHQQKGPPLPRPRVQPKPPHGAAENSLSPSSNRVKFSRSADAPAYKQGQNQLYNELNLGRREEYDVLDKRRGRDPEMGGKPRRKNPQEGLYNELQKDKMAEAYSEIGMKGERRRGKGHDGLYQGLSTATKDTYDALHMQALPPR
With B3, the “surface expression and binding of anti-CD2 staining reagents” value in experiment [3] is “expressed on the surface and/or retain binding to the anti-CD2 activator reagent”. Also, the results for the “degranulation (CD107a) against CD58” value in experiment [4] and in experiment [4] (listed as K67R/Y1101D) were “Little reactivity” and “do not mediate anti-CD58 degranulation activity”, respectively.

B4: K67R/Q70K/Y110D/D111H: CSR CD2z mutant within the extracellular domain of CD2 (protein)
chain: B3 chain with Q46K, D87H
In the case of B4, the “degranulation (CD107a) against CD58” value in experiment [4] is given as “Little reactivity”.
